Reference: patent US9073989B2, “Antibiotic comprising an antibody mimetic, its preparation methods and uses thereof” (PROTEIN DESIGN LAB, LTD, priority 2011, dated 2015)
“Also recorded” adds a separate entry of the source.

B1: Colicin Ia (protein, UniProt P06716 1-626, looked up)
Colicin-Ia: MSDPVRITNPGAESLGYDSDGHEIMAVDIYVNPPRVDVFHGTPPAWSSFGNKTIWGGNEWVDDSPTRSDIEKRDKEITAYKNTLSAQQKENENKRTEAGKRLSAAIAAREKDENTLKTLRAGNADAADITRQEFRLLQAELREYGFRTEIAGYDALRLHTESRMLFADADSLRISPREARSLIEQAEKRQKDAQNADKKAADMLAEYERRKGILDTRLSELEKNGGAALAVLDAQQARLLGQQTRNDRAISEARNKLSSVTESLNTARNALTRAEQQLTQQKNTPDGKTIVSPEKFPGRSSTNHSIVVSGDPRFAGTIKITTSAVIDNRANLNYLLSHSGLDYKRNILNDRNPVVTEDVEGDKKIYNAEVAEWDKLRQRLLDARNKITSAESAVNSARNNLSARTNEQKHANDALNALLKEKENIRNQLSGINQKIAEEKRKQDELKATKDAINFTTEFLKSVSEKYGAKAEQLAREMAGQAKGKKIRNVEEALKTYEKYRADINKKINAKDRAAIAAALESVKLSDISSNLNRFSRGLGYAGKFTSLADWITEFGKAVRTENWRPLFVKTETIIAGNAATALVALVFSILTGSALGIIGYGLLMAVTGALIDESLVEKANKFWGI
notes: Wild-type bacterial toxin secreted by E. coli forming ion channels
B2: PMC-AM1: Fusion of antibody mimetic AM1 (VHCDR1-VHFR2-VLCDR3, Seq ID No.2) to C-terminus of Colicin Ia; Seq ID No.6 (protein)
chain: SDPVRITNPGAESLGYDSDGHEIMAVDIYVNPPRVDVFHGTPPAWSSFGNKTIWGGNEWVDDSPTRSDIEKRDKEITAYKNTLSAQQKENENKRTEAGKRLSAAIAAREKDENTLKTLRAGNADAADITRQEFRLLQAELREYGFRTEIAGYDALRLHTESRMLFADADSLRISPREARSLIEQAEKRQKDAQNADKKAADMLAEYERRKGILDTRLSELEKNGGAALAVLDAQQARLLGQQTRNDRAISEARNKLSSVTESLNTARNALTRAEQQLTQQKNTPDGKTIVSPEKFPGRSSTNHSIVVSGDPRFAGTIKITTSAVIDNRANLNYLLSHSGLDYKRNILNDRNPVVTEDVEGDKKIYNAEVAEWDKLRQRLLDARNKITSAESAVNSARNNLSARTNEQKHANDALNALLKEKENIRNQLSGINQKIAEEKRKQDELKATKDAINFTTEFLKSVSEKYGAKAEQLAREMAGQAKGKKIRNVEEALKTYEKYRADINKKINAKDRAAIAAALESVKLSDISSNLNRFSRGLGYAGKFTSLADWITEFGKAVRTENWRPLFVKTETIIAGNAATALVALVFSILTGSALGIIGYGLLMAVTGALIDESLVEKANKFWGISYWLHWIKQRPGQGLWIGSQSTHVPRT
modifications: The amino acid sequence of antibiotic PMC-AM1

Test system: Mycobacterium tuberculosis (H37Rv, clinical drug-resistant strain94120)
Format: cell-based

Molecule | growth of bacteria lawn, strain H37Rv, re-culture test | bacteriostatic or bactericidal role | growth of bacteria lawn, strain94120
B1 | quantity of cells growth; also recorded: a mass of bacteria lawn growing | – | –
B2 | still no cell growth; also recorded: always no growth of bacteria lawn | bactericidal effect rather than simply antibacterial effect | no cell growth; also recorded: no growth of bacteria lawn
